In data set [1] the target is T1, hVEGF-A (human, UniProt P15692-4 27-191, limits assumed). Kind of data set: cell-based or functional assay.
Data set [2] concerns the target T1, hVEGF-A. Kind of data set: cell-based or functional assay. This is another data set of the same source.
The target of data set [3] is T2, hVEGF-A (8-109) (human, UniProt P15692 214-315).
T2 sequence (looked up): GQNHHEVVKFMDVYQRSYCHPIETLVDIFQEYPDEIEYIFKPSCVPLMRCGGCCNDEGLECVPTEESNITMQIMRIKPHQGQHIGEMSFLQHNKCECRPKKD
Description: spot phage ELISA. The essentials: (§1)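 Phage clones from four selection rounds were grown overnight at 37 °C with M13-KO7 helper phage. Bound phage was detected with anti-M13-HRP and TMB, with binding to BSA alone run in parallel as background.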

Another data set deals with T3, rat VEGF-A (rat, UniProt P16612-2 27-190, limits assumed).
T3 construct: also called rVEGF
T3 sequence (looked up): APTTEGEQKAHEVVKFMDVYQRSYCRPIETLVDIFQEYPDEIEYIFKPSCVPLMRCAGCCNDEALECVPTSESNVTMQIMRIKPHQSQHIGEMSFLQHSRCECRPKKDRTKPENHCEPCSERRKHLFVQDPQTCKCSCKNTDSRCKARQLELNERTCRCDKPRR
Kind of data set: SPR. As to the method: (§2) Depending on the format of the assay either a streptavidin sensor (SA) or a dextran-coated (CM5) sensor was utilized as described below.
(§3) Reaction was then quenched by addition of 10 molar excess of Glycine pH 8.0 and the sample was buffer exchanged into PBS using an Amicon 0.5 mL 3000 MWCO ultra-centrifugal filters (EMD Millipore). The biotinylation state of the protein was verified by LC-MS analysis. Biotinylated VEGF-A was then captured on the surface until a resonance unit (RU) signal of about ˜400. For immobilization of VEGF-A on CM5 sensor, the surface was first activated with a mixture of N-ethyl-N′-(3-dimethylaminopropyl)carbodiimide hydrochloride and N-hydroxysuccinimide (EDC/NHS) according to the supplier instructions. VEGF-A was then diluted into coupling buffer (0.1 M Acetate Buffer, pH 5.0) and injected until the signal reached about ˜400 RU followed by a wash with 1 M ethanolamine pH 8.0 to quench remaining activated sites.
Background: SPR reads the build-up and loss of mass on a sensor chip optically.

Data set [4] deals with T2, hVEGF-A (8-109). Description: SPR. As to the method: as §2, §3
In another data set the target is T4, rabbit VEGF-A (rabbit, UniProt G1T1L9 1-398).
T4 sequence: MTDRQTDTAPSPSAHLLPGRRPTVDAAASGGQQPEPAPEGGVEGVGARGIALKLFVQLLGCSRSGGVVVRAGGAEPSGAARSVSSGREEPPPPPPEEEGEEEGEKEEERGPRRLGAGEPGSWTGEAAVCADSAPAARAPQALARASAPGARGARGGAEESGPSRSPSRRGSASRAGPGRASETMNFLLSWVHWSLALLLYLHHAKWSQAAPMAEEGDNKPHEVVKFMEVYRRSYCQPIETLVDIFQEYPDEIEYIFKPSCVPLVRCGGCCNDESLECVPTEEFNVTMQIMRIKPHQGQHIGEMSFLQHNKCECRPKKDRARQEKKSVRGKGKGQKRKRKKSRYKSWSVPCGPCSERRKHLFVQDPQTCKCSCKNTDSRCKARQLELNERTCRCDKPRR
Description: SPR. As to the method: as §2, §3

The next data set concerns the target human VEGF-A 165 (human, UniProt P15692-4 27-191). Description: SPR. Here is the method:
as §2, §3

The target of another data set is T5, mouse VEGF-A 164 (mouse, UniProt Q00731-2 27-190).
T5 construct: also called mouse 164
T5 sequence (looked up): T3 sequence (looked up) with A10S, V14I, V75I
Kind of data set: SPR. Here is the method:
as §2, §3

In data set [5] the target is T2, hVEGF-A (8-109). Description: phage competition ELISA (clone on phage; the concentration varied on the axis is that of hVEGF (8-109)). On the technique in general: In an ELISA, binding on a coated surface is turned into a signal by an enzyme label.
Data set [6] deals with T1, hVEGF-A. Kind of data set: phage competition ELISA, soluble CKP.
A further data set addresses T6, hVEGF-A K48A (human, UniProt P15692-4 34-135, K48A).
T6 construct: position probably counted on the mature protein
T6 sequence (looked up): T2 sequence (looked up) with K41A
Description: SPR. Here is the method:
as §2, §3

The next data set addresses T7, hVEGF-A Y21A (human, UniProt P15692-4 34-135, Y21A).
T7 construct: position probably counted on the mature protein
T7 sequence (looked up): T2 sequence (looked up) with Y14A
Kind of data set: SPR. Here is the method:
as §2, §3

For the next data set, the target named is T8, hVEGF-A Q89A (human, UniProt P15692-4 34-135, Q89A).
T8 construct: position probably counted on the mature protein
T8 sequence (looked up): T2 sequence (looked up) with Q82A
Kind of data set: SPR. Here is the method:
as §2, §3

Data set [7] deals with T1, hVEGF-A. Description: SPR. Here is the method:
as §2, §3

The target in data set [8] is T1, hVEGF-A. Kind of data set: SPR. As to the method: as §2, §3
The source holds these as a separate data set.

For data set [9], the target named is T1, hVEGF-A. Kind of data set: KDR-VEGF competition ELISA.
A further data set concerns the target T9, Flt-4 (human, UniProt P35916 25-776, limits assumed).
T9 sequence (looked up): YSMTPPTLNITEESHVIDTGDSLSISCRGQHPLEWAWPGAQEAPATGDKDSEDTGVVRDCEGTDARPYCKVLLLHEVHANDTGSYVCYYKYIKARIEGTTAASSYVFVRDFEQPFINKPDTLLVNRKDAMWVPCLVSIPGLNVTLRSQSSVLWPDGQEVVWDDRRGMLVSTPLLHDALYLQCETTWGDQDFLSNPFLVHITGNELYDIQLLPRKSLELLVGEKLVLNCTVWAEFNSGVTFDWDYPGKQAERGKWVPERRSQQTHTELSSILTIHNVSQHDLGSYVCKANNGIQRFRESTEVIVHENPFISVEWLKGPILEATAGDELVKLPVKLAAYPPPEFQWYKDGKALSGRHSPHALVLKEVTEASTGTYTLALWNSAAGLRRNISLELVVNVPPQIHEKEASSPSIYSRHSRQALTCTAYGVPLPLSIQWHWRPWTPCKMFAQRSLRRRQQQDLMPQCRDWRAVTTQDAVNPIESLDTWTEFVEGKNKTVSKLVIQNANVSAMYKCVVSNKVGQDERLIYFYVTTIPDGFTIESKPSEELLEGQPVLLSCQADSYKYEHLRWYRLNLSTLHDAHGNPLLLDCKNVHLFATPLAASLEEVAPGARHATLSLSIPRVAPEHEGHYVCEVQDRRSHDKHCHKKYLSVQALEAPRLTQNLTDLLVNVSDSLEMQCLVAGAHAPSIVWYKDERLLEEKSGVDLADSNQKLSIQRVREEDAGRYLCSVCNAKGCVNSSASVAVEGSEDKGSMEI
Description: plate ELISA, growth factor coated. Here is the method: Binding specificity of each peptide was established by competition ELISA. […] After blocking with block buffer (PBS with 0.5% BSA and 0.05% TWEEN®20) for 2 hours at room temperature, the receptor-Fc fusions or biotinylated receptors were serially diluted using assay buffer (PBS with 0.5% BSA and 0.05% TWEEN®20) and incubated for 1 hour at room temperature. […] Competition ELISA was conducted in an identical fashion as described above except after blocking, a mixture of serially diluted peptide containing a constant concentration of receptor-Fc fusion or biotinylated receptor (concentration of receptor was set to EC₆₀) was added and incubated for 1 hour. All recombinant human proteins and antibodies were purchased from R &D Systems (Minneapolis, Minn.).

Data set [10] addresses T10, hVEGF-A (8-109) (human), P15692.
T10 chain: T2 sequence (looked up)
Description: spot phage ELISA. Conditions: remark: other sources report otherwise.

Data set [11] deals with T2, hVEGF-A (8-109). Description: SPR. As to the method: as §2, §3
The source holds these as a separate data set.

For data set [12], the target named is T2, hVEGF-A (8-109). Kind of data set: spot phage ELISA. The essentials:
as §1
The source holds these as a separate data set.

In data set [13] the target is T1, hVEGF-A. Kind of data set: cell-based or functional assay. The source holds these as a separate data set.
A further data set concerns the target T11, hVEGF-A (human), P15692.
T11 chain: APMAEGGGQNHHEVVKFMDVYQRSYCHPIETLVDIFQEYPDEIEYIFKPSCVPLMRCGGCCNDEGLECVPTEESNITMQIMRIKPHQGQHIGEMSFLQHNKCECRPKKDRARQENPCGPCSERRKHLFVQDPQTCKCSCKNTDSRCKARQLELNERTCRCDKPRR
Kind of data set: cell-based or functional assay.

Numbering of substitutions follows the chain as printed. Like-named read-outs stand apart in the source and are kept apart here. Non-standard residues stand in square brackets, D forms with d. No end group written: not given here. Nle = CCCC[C@H](N)C(=O)O

As usually defined, the Kd is a measure of binding affinity in units of concentration. A word on the kon: it is a measure of how fast the partners come together. Lower therefore signals slower complex formation. What is called IC50 is the midpoint of a concentration-inhibition curve. The low end stands for greater potency, the high end for weaker potency.

Chain of EETI-II (chain, as listed by the source): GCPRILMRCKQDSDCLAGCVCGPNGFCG

Regarding trypsin, the “trypsin protease activity, peptide substrate cleavage assay” value in the data set on EETI-II is “Unlike EETI-II, ... do not inhibit trypsin protease activity”.
Take GCNIMLPFWGCKQDSDCLAGCVCQYYQSCG (designed binder, also called EM54) [VEGF_CKP9.54]: the “Cellular IC50” value with hVEGF-A [1] and with hVEGF-A [2] was 188 nM each time. This molecule also yielded an ELISA with hVEGF-A (8-109) [3] of 2.1. Moreover, the “S/N vs BSA” value with hVEGF-A (8-109) [3] turned out to be 28.4. For the same molecule, the Kd in the data set with rat VEGF-A came out at 176 nM; with hVEGF-A (8-109) [4], 176 nM; in the data set with rabbit VEGF-A, 133 nM; in the data set with human VEGF-A 165, 190 nM; in the data set with mouse VEGF-A 164, 250 nM; with hVEGF-A K48A it was 22 nM. In addition, the Kd was 317 nM with hVEGF-A Y21A, 1880 nM with hVEGF-A Q89A, 55 nM with hVEGF-A [7] and 44 nM in the data set with hVEGF-A [8]. This molecule also registered an on-rate (kon) with hVEGF-A (8-109) [4] of 1.26e+06 M⁻¹ s⁻¹. Besides, the “IC50 (read off the curve)” value in the data set with hVEGF-A (8-109) [5] is roughly 4 nM. Moreover, the concentration for half-maximal inhibition (IC50) with hVEGF-A [6] is 450 nM; with hVEGF-A [9], 5.8 nM.

B1: VEGF-C (ligand, human, UniProt P49767 103-227, looked up)
chain: TEETIKFAAAHYNTEILKSIDNEWRKTQCMPREVCIDVGKEFGVATNTFFKPPCVSVYRCGGCCNSEGLQCMNTSTSYLSKTLFEITVPLSQGPKPVTISFANHTSCRCMSKLDVYRQVHSIIRR
For the molecule B1, the binding result in the data set with Flt-4 is on record as “binds”.
Consider GCQRTQPFWGCKQDSDCLAGCVCRWYQSCG (designed binder) [VEGF_CKP9.22], for which, in [10], the ELISA was determined as 1.2 and the S/N vs BSA was found to be 17.2.
On to GCDVMQPYWGCKQDSDCLAGCVCHWYNSCG (designed binder, also called EM63) [VEGF_CKP9.63], for which the “Cellular IC50” value in the data set with hVEGF-A [1] and with hVEGF-A [2] was 140 nM throughout. The same molecule returned an ELISA in the data set with hVEGF-A (8-109) [3] of 2. Moreover, the “S/N vs BSA” value in the data set with hVEGF-A (8-109) [3] was found to be 29.7. The Kd in the data set with rat VEGF-A came to 524 nM; in the data set with hVEGF-A (8-109) [4], 281 nM; with rabbit VEGF-A it was 311 nM; in the data set with human VEGF-A 165, 382 nM; with mouse VEGF-A 164, 289 nM; with hVEGF-A K48A it was 28.4 nM. For the same molecule, the Kd with hVEGF-A (8-109) [11] was 100 nM; with hVEGF-A Y21A, 585 nM; with hVEGF-A Q89A, 2000 nM; with hVEGF-A [7] it was 100 nM. Also, the IC50 was 146 nM in the data set with hVEGF-A [6] and 10.8 nM in the data set with hVEGF-A [9].
Consider GCDVMQPYWGCGPDIDCLAGCVCHWYNSCG (designed binder, also called L2.9.63.12) [VEGF_CKP9.63.12], for which, in the data set with hVEGF-A (8-109) [12], the ELISA was found to be 2.6. The “S/N vs BSA” value with hVEGF-A (8-109) [12] turned out to be 39.9. In addition, the “Cellular IC50” value with hVEGF-A [1] and with hVEGF-A [13] was 1.83 nM each time. The Kd in the data set with rat VEGF-A worked out at 5.74 nM; in the data set with hVEGF-A (8-109) [4], 3.2 nM; with rabbit VEGF-A, 2.54 nM; with human VEGF-A 165, 4.32 nM; with mouse VEGF-A 164, 13.1 nM; with hVEGF-A K48A, 0.33 nM. In addition, the Kd is 9.84 nM with hVEGF-A Y21A, 36.5 nM in the data set with hVEGF-A Q89A and 1.07 nM with hVEGF-A [7]. Besides, the “FOLD [..] [..] TO VARIANT 9.54.90” value with hVEGF-A [13] was determined as 0.74 fold. Further, the IC50 in the data set with hVEGF-A [9] was determined as 0.7 nM.
In the data set with hVEGF-A (human), P15692, GCNI[Nle]LPFWGCGRDFECLAGCVCQYYQSCG (designed binder, cysteine pairing not given here) [9.54.90.M5.Nle] returned a Cellular IC50 of 1.95 nM.

B2: VEGF-D (ligand, human, UniProt O43915 93-201, looked up)
chain: FYDIETLKVIDEEWQRTQCSPRETCVEVASELGKSTNTFFKPPCVNVFRCGGCCNEESLICMNTSTSYISKQLFEISVPLTSVPELVPVKVANHTGCKCLPTAPRHPYS
As to B2, the binding result with Flt-4 is on record as “binds”.

These data come from US20200325187A1 (Genentech, published 2020).
